From US10604566B2, “Antagonists of IL-17C for the treatment and/or prevention of atopic dermatitis” (MORPHOSYS AG, priority 2015, dated 2020)
Values belong to the molecule of their own block, whether it stands above or below them.

Key:
human IL-17C = biological target: T1, human IL-17C (Homo sapiens, UniProt Q9P0M4); experiment: Binding to human IL-17C and inhibition of IL-17C binding to IL-17RE
T1 sequence (Q9P0M4 19-197): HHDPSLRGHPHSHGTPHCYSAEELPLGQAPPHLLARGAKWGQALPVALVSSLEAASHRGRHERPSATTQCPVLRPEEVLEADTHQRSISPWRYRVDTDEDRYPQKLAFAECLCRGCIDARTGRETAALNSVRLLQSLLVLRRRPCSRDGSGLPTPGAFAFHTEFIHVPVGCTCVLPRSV
Procedure: (§1) The following working examples were performed using the antibodies MOR12743 and MOR22420 (see Table 1). […] Therefore both antibodies are antagonists of IL-17C in the sense of the present disclosure. MOR12743 is already disclosed and characterized in WO 2013/057241 (U.S. Ser. No. 14/351,162), which is incorporated by reference in its entirety.

murine IL-17C = biological target: T2, murine IL-17C (Mus musculus, UniProt Q8K4C5); experiment: Binding to murine IL-17C and inhibition of IL-17C binding to IL-17RE
T2 sequence (Q8K4C5 17-194): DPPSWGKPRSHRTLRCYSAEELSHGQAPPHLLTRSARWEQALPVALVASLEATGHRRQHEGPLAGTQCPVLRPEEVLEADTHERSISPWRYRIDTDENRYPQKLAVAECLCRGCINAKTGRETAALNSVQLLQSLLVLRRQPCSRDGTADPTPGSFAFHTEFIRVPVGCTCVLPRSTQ
Procedure: as §1

MC903-treated mice = experiment: MC903 mouse model of atopic dermatitis; assay type: in vivo, BALB/c mice; conditions: 3x10 mg/kg i.p.
From the text: The pro-inflammatory function of IL-17C in atopic dermatitis was examined in a non-infectious cutaneous inflammation mouse model of atopic dermatitis where topical application of the low-calcemic vitamin D3 analogue MC903 (calcipotriol) induces atopic dermatitis like skin lesion characterized by a red and scaly skin, accompanied by an epidermal hyperplasia and dermal infiltration of various cell types as well as an increase of Th2 cytokine in skin and elevated serum IgE (Li et al., 2006; Li et al, 2009). The MC903 mouse model is a widely accepted and predictable model to mimic the Th2 driven symptoms of atopic dermatitis in vivo.
BALB/c mice (female, 8-week old) were obtained from Janvier Labs (France). Mice were kept on a 12 hours light/dark cycle (0700-1900). Temperature was maintained at 22° C., and food and water were provided ad libitum.
In order to induce an AD-like response, 2 nmol MC903 (Tocris, dissolved in ethanol) was topical applied in a volume of 20 μL on both ears of mice for 5 consecutive days. A non-disease control group received the same quantity of ethanol (EtOH).
The severity of skin inflammation (erythema and thickening) was observed daily. Ear thickness was measured with an electronic caliper (Mitutoyo). Inflammation was further assessed using an in vivo imaging technique. To that end, Prosense 680 probe (1.6 nmol, Perkin Elmer) was administered by intraperitoneal route 24 hours before imaging. Imaging was performed with the Bruker In-vivo Xtreme Imaging System. Images were captured by a deeply cooled 4MP CCD camera (f-stop 1.1, binning 2×2, 5 sec acquisition time, Ex 630 nm, Em 700 nm). For anatomical co-registration, a reflectance image was taken (f-stop 2.8, 0.175 sec acquisition time). All images were taken with a 190×190 field of view and images were analysed using Molecular Imaging Software version 7.1 (Bruker Biospin, Billerica, Mass., USA). For each group, the mean values and standard error of mean (sem) was calculated using for each mouse the mean value of left and right ear.
At sacrifice, samples form ear skin were collected and fixed in 4% formaldehyde before embedding in paraffin. 4 μm-thick slices were stained with hematoxylin and eosin (H&E stain) for histomorphometric evaluation of epidermal thickness by image analysis with Sisn'Com software (France). Five fields per ear (high power field ×20) covering the whole ear from top to bottom were measured, and the 5 values were averaged per ear and per mice (left/right ear). An additional set of tissue slices were prepared for IHC staining of IL-17C using the anti-IL-17C biotinylated MOR12743 antibody (and biotinylated MOR03207 isotype negative control antibody). Processing and staining was essentially done as described above.
Ear skin samples were also taken for analysis of cytokine expression using qPCR or ELISA. […] Ear skin sam pies for quantification at protein level were immediately snap frozen in liquid N2 and stored at −80° C. […] 5 μL of 10-fold diluted cDNA was used in real-time quantitative PCR reactions using SYBR Green technology with gene-specific primers from Qiagen. qPCR was performed on the ViiA™ 7 Real-Time PCR System (Applied Biosystems). Gene expression was normalized to the expression of 3 different house-keeping genes (cyclophilin, b-actin and GAPDH) and expressed as relative mRNA level of specific gene expression as obtained using the 2^−ΔCt method, with ΔCt=Ctgene−Geomean Ct-value (housekeeping genes). […]

specific binding to IL-17C (human IL-17C): specifically bind
B1: MOR22420: anti-IL-17C antibody, binds human IL-17C; VH SEQ ID No.: 21, VL SEQ ID No.: 20 (antibody, V domains shown)
VH: QVQLVQSGAEVKKPGSSVKVSCKASGGTFSSYAISWVRQAPGQGLEWMGTIDPFFGKTYYAQKFQGRVTITADESTSTAYMELSSLRSEDTAVYYCARDVSSISYYFHEYYSDRFDYWGQGTLVTVSS
VL: DIALTQPASVSGSPGQSITISCTGTSSDVGGYEYVNWYQQHPGKAPKLMIYDDSYRPSGVSNRFSGSKSGNTASLTISGLQAEDEADYYCQSTDPHSTVVFGGGTKLTVLGQ
modifications: mab Library
inhibition of binding of IL-17C to its receptor IL-17RE (human IL-17C): inhibit binding of IL-17C to its receptor IL-17RE

specific binding to IL-17C (murine IL-17C): specifically bind
B2: MOR12743: anti-IL-17C antibody, binds murine IL-17C; VH SEQ ID No.: 11, VL SEQ ID No.: 10; disclosed in WO 2013/057241 (antibody, V domains shown)
VH: QVQLVQSGAEVKKPGASVKVSCKASGYTFTSNFIHWVRQAPGQGLEWMGWISPYNGDTNYAQKFQGRVTMTRDTSISTAYMELSRLRSEDTAVYYCARESVYYGSDYGYNGMDIWGQGTLVTVSS
VL: DIELTQPPSVSVSPGQTASITCSGDNLGEEYVSWYQQKPGQAPVLVIYDDTKRPSGIPERFSGSNSGNTATLTISGTQAEDEADYYCASWDLWSVEVFGGGTKLTVLGQ
modifications: mab Library
inhibition of binding of IL-17C to its receptor IL-17RE (murine IL-17C): inhibit binding of IL-17C to its receptor IL-17RE | ear inflammation as assessed by in vivo imaging (MC903-treated mice; day 5, Prosense 680 probe, FIG. 6): significantly reduced | ear redness (MC903-treated mice; day 8, vs MC903+MOR03207 isotype control): less red | ear swelling (ear thickness) (MC903-treated mice; day 8, vs MC903+MOR03207 isotype control, FIG. 5): significantly less swollen | epidermal hyperplasia (epidermal thickness) (MC903-treated mice; histology H&E at sacrifice, FIG. 7): partially reduced | TSLP expression in ears (MC903-treated mice; protein, ELISA, FIG. 8): significantly inhibited
